Where two headings read alike, the source gives them in different places.
How the values were obtained:
[1] = molecular target: RBD protein (L452R, E484Q)
[2] = molecular target: RBD protein (K417N, N501Y, E484K)
[3] = molecular target: RBD protein (L452R, E484Q); remark: listed apart in the source

Substance “MM57 neutralizing monoclonal antibody (Beijing Sino Biological Ltd. Co., article number 40592-MM57)” has an EC50 (read off the curve) [1] of 0.2 µg/mL.
With “MM43 neutralizing monoclonal antibody (Beijing Sino Biological Ltd. Co., article number 40591-MM43)” the EC50 (read off the curve) [2] was 0.7 µg/mL.
“R001 neutralizing monoclonal antibody (Beijing Sino Biological Ltd. Co., article number 40592-R001)” gave an EC50 (read off the curve) [3] of 0.2 µg/mL.

Reference: patent US20240325520A1
